Laboratory results: patent US20040208887A1

B1: Fab clone 4:6 (Fab, V domains shown)
VH: VQLLEQSGAEVKKPGASVKVSCKASGYTFTKYYLHWVRQAPGQGLEWMGFINPSGGSTSSAQKFQGRISMTRDTSTTTVYMEVNSVTSEDTAVYYCARVGRLGVGATGAFDLWGQGTMVTVSS
VL: AELTQSPSSLSASVGDRVTITCQASQDINYSLNWYQQKPGKPPKLLIYYASHSDTGVPSRFSGGGSGTRFTLTIYSLQPEDIATYYCQHFDHVPRYTFGPGTKVDLK
B2: Fab clone 6a:5 (Fab, V domains shown)
VH: EVQLLESGPGLVKPSQTLSLTCAISGDNVSRKSAAWNWIRQSPSRGLEWLGRTYHMSKWYSVYATSLKSRININVDTSRNQFALQLRSVTPEDTAVYYCAREGPEWAVGGTYGMDVWGQGTTVTVSS
VL: AELTQSPDTLSLSPGERATLSCRASQSVNNNYLAWYQQKPGQAPRLLIYGASSRATGIPDRFSGSGSETDFTLTISRLEPEDFAVYYCQQYDSSRTFGQGTKVEIK

Molecular target: recombinant E2 (genotype 1a) (hepatitis C virus genotype 1a) (UniProt P26664)
Experiment: ELISA, E2 coated as negative control antigen; crude periplasmic Fab

recombinant E2 (genotype 1a) (hepatitis C virus genotype 1a), sequence (P26664 384-715 limits assumed): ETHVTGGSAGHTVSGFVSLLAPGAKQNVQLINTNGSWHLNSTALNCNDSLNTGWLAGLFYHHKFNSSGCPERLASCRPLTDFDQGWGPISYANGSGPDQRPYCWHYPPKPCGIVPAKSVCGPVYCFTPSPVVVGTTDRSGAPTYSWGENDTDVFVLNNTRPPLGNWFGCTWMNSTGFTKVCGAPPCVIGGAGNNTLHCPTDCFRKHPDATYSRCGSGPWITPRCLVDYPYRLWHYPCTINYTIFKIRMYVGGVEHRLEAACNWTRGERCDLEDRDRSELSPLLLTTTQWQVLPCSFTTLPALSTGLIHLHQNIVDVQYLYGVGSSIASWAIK

Binder	OD405 nm [OD405 nm]
B1	0.08
B2	0.03
